From patent US20210198377A1 (XDCEXPLORER SHANGHAI, published 2021)

T1: biotinylated recombinant TPBG protein (Homo sapiens (Human), UniProt Q13641 32-355, Biotinylated; the number and positions of the biotin labels are not stated and the letters do not carry them.)
T1 sequence: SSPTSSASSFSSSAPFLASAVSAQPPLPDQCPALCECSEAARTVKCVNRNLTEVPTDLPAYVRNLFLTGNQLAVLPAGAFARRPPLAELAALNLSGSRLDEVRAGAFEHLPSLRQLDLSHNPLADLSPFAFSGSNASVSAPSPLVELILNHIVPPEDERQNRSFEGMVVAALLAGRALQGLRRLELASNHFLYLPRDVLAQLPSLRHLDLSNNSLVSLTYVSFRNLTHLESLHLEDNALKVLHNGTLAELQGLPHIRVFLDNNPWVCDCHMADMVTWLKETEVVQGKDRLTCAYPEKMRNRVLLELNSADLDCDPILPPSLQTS

T2: human TPBG (full length, on cells) (human, UniProt Q13641 32-420)
T2 construct: whole, on cells; On transfected HEK293 or CHO-K1 cells; for the tumour lines NCI-H1568 and NCI-H1299 it is the cells' own TPBG; also called hTPBG; 5T4
T2 sequence (looked up): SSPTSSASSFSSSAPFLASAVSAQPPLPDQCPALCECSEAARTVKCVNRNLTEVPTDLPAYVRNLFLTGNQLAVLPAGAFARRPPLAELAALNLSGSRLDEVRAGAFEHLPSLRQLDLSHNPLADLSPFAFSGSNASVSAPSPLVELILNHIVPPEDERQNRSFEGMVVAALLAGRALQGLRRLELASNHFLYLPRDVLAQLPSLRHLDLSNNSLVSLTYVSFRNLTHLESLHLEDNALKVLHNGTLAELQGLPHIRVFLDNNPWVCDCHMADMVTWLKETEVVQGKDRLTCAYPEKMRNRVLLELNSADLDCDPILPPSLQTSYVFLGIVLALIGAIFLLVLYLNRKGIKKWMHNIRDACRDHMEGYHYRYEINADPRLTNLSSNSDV


Legend:
[1] = target: T1, biotinylated recombinant TPBG protein; assay: competitive ELISA; row antibody 5 ug/mL; competitor: coated 37H9C5G2
Description: (§1) The purified antibodies to be tested were diluted to 1 μg/mL using PBS, and coated with high-adsorption of 96-well microplates at […]. After overnight coating at 4[…], 250 μL of blocking buffer (PBS containing 0.01% (v/v) Tween20 and 1% (w/w) BSA) was added to block coating at room temperature for 1 h, and 0.05 μg/mL of biotinylated recombinant TPBG protein was added to each well. Meanwhile, 5 μg/mL final concentration of competitive antibodies, i.e. the purified antibodies obtained from Embodiment 2 with the clone number of 12B12C7C3, 5G4H10G5, 37H9C5G2, 39A11G5F2, 52C9E9F6, 28D4E6A9, 36A10D8B12, 99E12C7H1, 103E2E9C2 and 106D5G3D10 were added and incubated at 25-37° C. for 1-2 h. The plates were washed three times with plate-washing buffer (PBS containing 0.01% (v/v) Tween20) and HRP (horseradish peroxidase)-labeled streptavidin (purchased from Sigma) was added. After incubating at 37° C. for 0.5 h, the plates were washed three times with plate-washing buffer (PBS containing 0.01% (v/v) Tween20), and 100 μL of TMB substrate was added to each well and the plates were further incubated at room temperature for 30 min prior to adding 100 μL of stop buffer (1.0N HCl) to each well. A₄₅₀ₙₘ values were read using an ELISA microplate reader (SpectraMax 384plus purchased from Molecular Device) and results were shown in FIG. 6. The higher the values of the competition rate, the closer the antigen surface of the two antibodies are.

[2] = target: T2, human TPBG (full length, on cells); assay: FACS on CHO-K1-hTPBG cells
Text: The stable cell lines CHO-k1-hTPBG, CHO-k1-cTPBG, CHO-k1-mTPBG (i.e. the CHO-k1-hTPBG 3A2F1, CHO-k1-cTPBG 3F13G4 and CHO-k1-mTPBG 3A3 shown in table 7) and CHO-K1 cells were expanded to a 90% of confluency in T-75 cell culture flasks, the culture medium were removed, and cells were then rinsed twice with HBSS buffer (Hanks Balanced Salt Solution, purchased from Invitrogen) and lysed with enzyme-free cell dissociation buffer (Versene solution purchased from Life technology) and harvested. Harvested cells were rinsed with HBSS buffer twice and counted before diluting with HBSS buffer to 2×10⁶ cells /mL, and 10% goat serum blocking buffer was then added, wherein the percentage is the mass percentage. Cells were incubated on ice for 30 min, and then washed twice with HBSS buffer by centrifugation. The harvested cells were resuspended with FACS buffer (HBSS+1% BSA, wherein the percentage is mass percentage) to a concentration of 2×10⁶ cells /mL. 100 μL per well of the cells was aliquoted to 96-well FACS reaction plates, and 100 μL per well of test sample—the purified TPBG antibody obtaining from Embodiment 2 was added before incubating on ice for 2 h. The plate was washed with the FACS buffer twice by centrifugation, and 100 μL per well of fluorescence (Alexa 488) labeled secondary antibody (purchased from Invitrogen) was then added and incubated on ice for 1 h. The plate was washed with the FACS buffer for three times by centrifugation, follow by resuspending in 100 μL of fixation buffer (4% (v/v) paraformaldehyde). Cells were washed with FACS buffer twice after 10 min, follow by resuspending with 100 μL of FACS buffer. The results were measured and analyzed by FACS (FACS Calibur, purchased from BD). Data analysis was performed by software (CellQuest) to obtain mean fluorescence intensity (MFI) of the cells, follow by calculating EC50 value by software (GraphPad Prism) analysis and data fitting. The analysis results were shown in Table 8 and FIGS. 7-10, and data in FIGS. 7-10 show the mean fluorescence intensity (MFI) of cells.

[3] = target: T1, biotinylated recombinant TPBG protein; assay: competitive ELISA; row antibody 5 ug/mL; competitor: coated 5G4H10G5
Description: as §1

[4] = target: T1, biotinylated recombinant TPBG protein; assay: competitive ELISA; row antibody 5 ug/mL; competitor: coated 39A11G5F2
Description: as §1

| Binder | competition rate [1] | EC50 [2] | competition rate [3] | competition rate [4] |
| --- | --- | --- | --- | --- |
| 106D5G3D10 (antibody, V domains shown, Mouse hybridoma antibody purified from culture supernatant; also called TPBG antibody; lead antibody) VH: EVQLVESGGGLVKPGGSLKLSCAASGFTFSDYGMHWVRQAPEKGLEWVGYISSGTYVVYYADTVKGRFTISRDNAKNTLFLQMTSLRSEDTAIYYCSTYGSNPFDYWGQGTTLTVSS VL: QLVLTQSPAIMSASPGEKVTITCSATSSVSSMHWFQQKPVTSPKLWIYSTSNLASGVPTRFSGSGSGTSYSLTISRMEAEDAATYYCQQRSGYPPIFTFGSGTKLEIK | 3% | 1.72 nM | 40% | 1% |
| 103E2E9C2 (antibody, V domains shown, Mouse hybridoma antibody purified from culture supernatant; also called TPBG antibody; lead antibody) VH: EVQLQQSGPVLVKPGASVKMSCEASGYSFIDYYMSWVKQSRGRSLEWIGVFNPYSGEIIYNQKFKGKATLTVDKSSSTAYMELSSLTSEDSGVYSCARLRISYYAIDYWGQGTSVAVSS VL: ENVLTQSPAIMSASPGEKVTMTCRATSSVSSGHFHWYQQKSGASPKVWIYSTSNLASGVPARFSGSGSGTSFSLTISSVEAEDVATYFCQQYSGYPLTFGGGTKLEIK | 23% | 0.85 nM | 7% | 0% |
| 37H9C5G2 (antibody, V domains shown, Mouse hybridoma antibody purified from culture supernatant; also called TPBG antibody; lead antibody) VH: QVQLQQSDAELVRPGASVKMSCKVSGYTFTDHTIHWMKQRPEQGLEWIGYIYPRDGSGTYNEKFKGKATLTADKSSSTAYMQLNSLTSEDSAVYFCARDGSSHYWYFDVWGTGTTVTVSS VL: DIQMTQSPASLSASVGETVTITCRASEIIYNYLAWYQQKQGKSPQLLVYNAKTLAEGVPSRFSGSYSGTQFSLNINSLQSEDFGIYYCQHHHDTPLTFGAGTKLDLK | 96% | 0.94 nM | 12% | 3% |
| 36A10D8B12 (antibody, V domains shown, Mouse hybridoma antibody purified from culture supernatant; also called TPBG antibody; lead antibody) VH: DVQLQESGPGMVKPSQSLSLTCTVTGYSITSGYDWHWIRHFPGNKLEWMGYISYSGNTNYNPSLKSRISITHNTSKNHFFLRLNSVTTEDTATYYCARGYGNWDAMDYWGQGTSVTVSS VL: DIVMTQSQKFMSTSVGDRVSVTCKASQIVDTNVAWYQQKPGQSPKALISSASYRYSGVPDRFTGSGSGTDFTLTISNVQSEDLAEYFCQQYNSYPLTFGAGTKLELT | 96% | 0.94 nM | 17% | 4% |
| 39A11G5F2 (antibody, V domains shown, Mouse hybridoma antibody purified from culture supernatant; also called TPBG antibody; lead antibody) VH: QVQLQQSGAELMKPGASMRLSCKATGYTFTGYWLEWIKRRPGHGLEWIGEILPGRGSTNYNEKFKGKATFTAETSSNTAYMQLTSLTTEDSAIYYCARGGRDFDNWGQGTTLTVSS VL: DIQMTQSTSSLSASLGDRVTISCSASQGINNHLNWYQQKPDGTVKLLIYYTSSLHSGVPSRFSGSGSGTDYSLTISNLEPEDIAIYYCQQFSKLPYTFGGGTKVEMK | 0% | 2.34 nM | 19% | 96% |
| 52C9E9F6 (antibody, V domains shown, Mouse hybridoma antibody purified from culture supernatant; also called TPBG antibody; lead antibody) VH: QVQLQQSGAELMKPGASVKLSCKATGYTFTGYWIEWIKQRPGHGLEWIGEILPGRGSTDYNEKFKGKATFTADTSSNTAYMQLSSLTTEDSAIYYCTRGRLDFTYWGQGTLVTVSA VL: DIQMTQTTSSLSASLGDRVTISCSASQGIRNYLNWYQQKPDGTVKLLIYYTSSLHSGVPSRFSGSGSGTDYSLTISNLEPEDIATYYCQQYSKVPWTFGGGTKLEIK | 4% | 3.27 nM | 32% | 97% |
| 12B12C7C3 (antibody, V domains shown, Mouse hybridoma antibody purified from culture supernatant; also called TPBG antibody; lead antibody) VH: DVQLVESGGGLVQPGGSRKLSCAASGFTFSNFGMHWVRQAPEKGLEWVAYISSGSTSFYYADTVKGRFTISRDNPKNTLFLQMTSLRSEDTAMYYCSRTNSLLRGFFDAWGAGTTVTVSS VL: DIVLTQSPASLAVSLGQRATISCRASQSVSSSSYTYLHWYQQKPGQPPKLLIKSASNLESGVPARFSGTGSGTDFTLNIHPVEEEDTATYYCQHSWEIPLTFGAGTKLELK | 1% | 0.65 nM | 47% | 0% |
| 28D4E6A9 (antibody, V domains shown, Mouse hybridoma antibody purified from culture supernatant; also called TPBG antibody; lead antibody) VH: DVQLVESGGGLVRPGGSLKLSCAASGFTFSNYVMSWARQSPEKRLEWVAEISTGGSHTYYSDTVTGRFTISRDNAKKALYLEMSSLRSEDTAIYYCIMFYYGSSYSMDYWGQGTSVTVSS VL: DIQMTQSTSSLSASLGDRITISCRASQDIRNYLNWYQQKPDGTVKLLIYHTSRLHSGVPSRFSGSGSGTDYSLTISNLEQEDIATYFCQQGDTLPLTFGAGTRLELK | 0% | 0.63 nM | 11% | 0% |
| 99E12C7H1 (antibody, V domains shown, Mouse hybridoma antibody purified from culture supernatant; also called TPBG antibody; lead antibody) VH: QIQLVQSGPELKKPGETVKISCKPSGYTFTAYGLSWVKQAPGQGFQWMGWINTYSGVPTYTDDFKGRFAFSLETSAGTASLQITNLKNEDTATYFCARSSIPPFEYWGPGTTLTVSS VL: SFVMTQSPKFLLVSVGDRVTITCKASQSVSNDVAWYQQKPGQPPRVLIYFASNRYTGVPDRFTGSGYGTDFTFTISTVQAEDLALYFCQQDYSSPWTFGGGTKLEIK | 5% | 3.54 nM | 95% | 1% |
| 5G4H10G5 (antibody, V domains shown, Mouse hybridoma antibody purified from culture supernatant; also called TPBG antibody; lead antibody) VH: EVQLVESGGDLVQPGGSLKLFCAASGFTFSTYGLSWVRQTPDKRLELVATITNNDGSAYYPDSVKGRFTISRDKAKNTLFLQMTSLKSEDTAMYYCARETGFGSSYLFDYWGQGTLVTVSA VL: NIVMTQTPKFLLVSAGDRVTITCKASQSVSNDVAWYQQKPGQSPKLLIYFATNRYTGVPNRFTGSGYGTEFTFTISSVQAEDLAVYFCQQDYSSPTFGGGTKLEIK | 5% | 1.75 nM | 97% | 10% |
